Measured values reported in US20150344570A1 (published 2015).

T1: FcγRIIa H (FcgRIIa type H, His at position 131), extracellular domain with C-terminal His tag (human, UniProt P12318 34-217)
T1 construct: extracellular domain; also called 2aH; FcgRIIa H; not shown: His tag at the C terminus
T1 sequence (looked up): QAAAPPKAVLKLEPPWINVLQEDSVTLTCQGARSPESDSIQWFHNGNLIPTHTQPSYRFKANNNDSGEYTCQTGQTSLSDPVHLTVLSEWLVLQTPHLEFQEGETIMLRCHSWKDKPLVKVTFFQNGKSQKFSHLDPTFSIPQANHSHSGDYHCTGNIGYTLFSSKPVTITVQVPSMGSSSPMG

T2: FcγRIIb, extracellular domain with C-terminal His tag (human, UniProt P31994 43-217)
T2 construct: extracellular domain; also called 2b; FcgRIIb; not shown: His tag at the C terminus
T2 sequence (looked up): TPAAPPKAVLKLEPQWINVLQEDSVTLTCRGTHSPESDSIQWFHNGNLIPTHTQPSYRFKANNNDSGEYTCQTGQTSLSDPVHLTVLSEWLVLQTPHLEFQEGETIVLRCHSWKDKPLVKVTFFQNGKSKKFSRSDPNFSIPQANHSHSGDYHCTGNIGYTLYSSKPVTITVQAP

T3: FcγRIIb (human, UniProt P31994 43-217)
T3 construct: extracellular domain; also called FcgRIIb; 2b
T3 sequence (looked up): T2 sequence (looked up)

B1: GpH7-A5/GpH7-B3 variant S267_01G/GpL16-k0 (antibody, human IgG1, kappa)
heavy 1: not shown
heavy 2: not shown
light: DIVMTQSPLSLPVTPGEPASISCQASESLVHSNRNTYLHWYLQKPGQSPQLLIYKVSNRFSGVPDRFSGSGSGTDFTLKISRVEAEDVGVYYCSQNTHVPPTFGQGTKVEIERTVAAPSVFIFPPSDEQLKSGTASVVCLLNNFYPREAKVQWKVDNALQSGNSQESVTEQDSKDSTYSLSSTLTLSKADYEKHKVYACEVTHQGLSSPVTKSFNRGEC
notes: He Ab; alteration in one H chain only; also called He Ab
B2: GpH7-A5/GpH7-B3 variant P271_14T/GpL16-k0 (antibody, human IgG1, kappa)
heavy 1: not shown
heavy 2: not shown
light: B1 light
notes: as for B1
B3: GpH7-A5/GpH7-B3 variant S267_14T/GpL16-k0 (antibody, human IgG1, kappa)
heavy 1: not shown
heavy 2: not shown
light: B1 light
notes: as for B1
B4: GpH7-A5/GpH7-B3 variant S267_08L/GpL16-k0 (antibody, human IgG1, kappa)
heavy 1: not shown
heavy 2: not shown
light: B1 light
notes: as for B1
B5: GpH7-A5/GpH7-B3 variant K326_02A/GpL16-k0 (antibody, human IgG1, kappa)
heavy 1: not shown
heavy 2: not shown
light: B1 light
notes: as for B1
B6: GpH7-A5/GpH7-B3 variant H268_13S/GpL16-k0 (antibody, human IgG1, kappa)
heavy 1: not shown
heavy 2: not shown
light: B1 light
notes: as for B1
B7: GpH7-A5/GpH7-B3 variant H268_09D/GpL16-k0 (antibody, human IgG1, kappa)
heavy 1: not shown
heavy 2: not shown
light: B1 light
notes: as for B1
B8: GpH7-A5/GpH7-B3 variant S267_06M/GpL16-k0 (antibody, human IgG1, kappa)
heavy 1: not shown
heavy 2: not shown
light: B1 light
notes: as for B1
B9: GpH7-A5/GpH7-B3 variant S298_08L/GpL16-k0 (antibody, human IgG1, kappa)
heavy 1: not shown
heavy 2: not shown
light: B1 light
notes: as for B1
B10: GpH7-A5/GpH7-B3 variant S267_04F/GpL16-k0 (antibody, human IgG1, kappa)
heavy 1: not shown
heavy 2: not shown
light: B1 light
notes: as for B1
B11: GpH7-A5/GpH7-B3 variant S267_03V/GpL16-k0 (antibody, human IgG1, kappa)
heavy 1: not shown
heavy 2: not shown
light: B1 light
notes: as for B1
B12: GpH7-A5/GpH7-B3 variant S267_09D/GpL16-k0 (antibody, human IgG1, kappa)
heavy 1: not shown
heavy 2: not shown
light: B1 light
notes: as for B1
B13: GpH7-A5/GpH7-B3 variant S267_02A/GpL16-k0 (antibody, human IgG1, kappa)
heavy 1: not shown
heavy 2: not shown
light: B1 light
notes: as for B1
B14: GpH7-A5/GpH7-B3 variant H268_02A/GpL16-k0 (antibody, human IgG1, kappa)
heavy 1: not shown
heavy 2: not shown
light: B1 light
notes: as for B1
B15: GpH7-A5/GpH7-B3 variant P271_10E/GpL16-k0 (antibody, human IgG1, kappa)
heavy 1: not shown
heavy 2: not shown
light: B1 light
notes: as for B1
B16: GpH7-A5/GpH7-B3 variant S267_07I/GpL16-k0 (antibody, human IgG1, kappa)
heavy 1: not shown
heavy 2: not shown
light: B1 light
notes: as for B1
B17: GpH7-A5/GpH7-B3 variant H268_18N/GpL16-k0 (antibody, human IgG1, kappa)
heavy 1: not shown
heavy 2: not shown
light: B1 light
notes: as for B1
B18: GpH7-A5/GpH7-B3 variant S267_15Y/GpL16-k0 (antibody, human IgG1, kappa)
heavy 1: not shown
heavy 2: not shown
light: B1 light
notes: as for B1
B19: GpH7-A5/GpH7-B3 variant H268_01G/GpL16-k0 (antibody, human IgG1, kappa)
heavy 1: not shown
heavy 2: not shown
light: B1 light
notes: as for B1
B20: GpH7-A5/GpH7-B3 variant K326_03V/GpL16-k0 (antibody, human IgG1, kappa)
heavy 1: not shown
heavy 2: not shown
light: B1 light
notes: as for B1
B21: GpH7-A5/GpH7-B3 variant H268_10E/GpL16-k0 (antibody, human IgG1, kappa)
heavy 1: not shown
heavy 2: not shown
light: B1 light
notes: as for B1
B22: GpH7-A5/GpH7-B3 variant H268_19Q/GpL16-k0 (antibody, human IgG1, kappa)
heavy 1: not shown
heavy 2: not shown
light: B1 light
notes: as for B1
B23: GpH7-A5/GpH7-B3 variant P271_09D/GpL16-k0 (antibody, human IgG1, kappa)
heavy 1: not shown
heavy 2: not shown
light: B1 light
notes: as for B1
B24: GpH7-A5/GpH7-B3 variant S267_05P/GpL16-k0 (antibody, human IgG1, kappa)
heavy 1: not shown
heavy 2: not shown
light: B1 light
notes: as for B1
B25: GpH7-A5/GpH7-B3 variant S267_19Q/GpL16-k0 (antibody, human IgG1, kappa)
heavy 1: not shown
heavy 2: not shown
light: B1 light
notes: as for B1
B26: GpH7-A5/GpH7-B3 variant S267_16H/GpL16-k0 (antibody, human IgG1, kappa)
heavy 1: not shown
heavy 2: not shown
light: B1 light
notes: as for B1
B27: GpH7-A5/GpH7-B3 variant P271_01G/GpL16-k0 (antibody, human IgG1, kappa)
heavy 1: not shown
heavy 2: not shown
light: B1 light
notes: as for B1
B28: GpH7-A5/GpH7-B3 variant S267_20W/GpL16-k0 (antibody, human IgG1, kappa)
heavy 1: not shown
heavy 2: not shown
light: B1 light
notes: as for B1
B29: GpH7-A5/GpH7-B3 variant H268_05P/GpL16-k0 (antibody, human IgG1, kappa)
heavy 1: not shown
heavy 2: not shown
light: B1 light
notes: as for B1
B30: GpH7-A5/GpH7-B3 variant S267_10E/GpL16-k0 (antibody, human IgG1, kappa)
heavy 1: not shown
heavy 2: not shown
light: B1 light
notes: as for B1
B31: GpH7-A5/GpH7-B3 variant V266_18N/GpL16-k0 (antibody, human IgG1, kappa)
heavy 1: not shown
heavy 2: not shown
light: B1 light
notes: mutation in the GpH7-B3 chain only; also called He Ab
B32: GpH7-A5/GpH7-B3 variant V266_19Q/GpL16-k0 (antibody, human IgG1, kappa)
heavy 1: not shown
heavy 2: not shown
light: B1 light
notes: as for B31

Target: T1, FcγRIIa H (FcgRIIa type H, His at …)
Assay: SPR (Biacore), relative binding, GpH7-A5/GpH7-B3/GpL16-k0 = 100

| Binder | He/Con_2aH |
| --- | --- |
| B1 | 71.3 % of control |
| B2 | 60.9 % of control |
| B3 | 63.3 % of control |
| B4 | 29 % of control |
| B5 | 106 % of control |
| B6 | 112 % of control |
| B7 | 133 % of control |
| B8 | 34.3 % of control |
| B9 | 85 % of control |
| B10 | 22.7 % of control |
| B11 | 50.8 % of control |
| B12 | 105 % of control |
| B13 | 120 % of control |
| B14 | 114 % of control |
| B15 | 63.1 % of control |
| B16 | 34.7 % of control |
| B17 | 112 % of control |
| B18 | 19.6 % of control |
| B19 | 99.2 % of control |
| B20 | 97 % of control |
| B21 | 124 % of control |
| B22 | 102 % of control |
| B23 | 70.1 % of control |
| B24 | 25.1 % of control |
| B25 | 61.3 % of control |
| B26 | 29.8 % of control |
| B27 | 107 % of control |
| B28 | 37.9 % of control |
| B29 | 81.8 % of control |
| B30 | 102 % of control |

Target: T2, FcγRIIb, extracellular domain with …
Assay: as above

| Binder | He/Con_2b |
| --- | --- |
| B1 | 105 % of control |
| B2 | 95.4 % of control |
| B3 | 104 % of control |
| B4 | 109 % of control |
| B5 | 139 % of control |
| B6 | 160 % of control |
| B7 | 239 % of control |
| B8 | 210 % of control |
| B9 | 108 % of control |
| B10 | 48 % of control |
| B11 | 192 % of control |
| B12 | 310 % of control |
| B13 | 243 % of control |
| B14 | 167 % of control |
| B15 | 109 % of control |
| B16 | 192 % of control |
| B17 | 156 % of control |
| B18 | 37.9 % of control |
| B19 | 144 % of control |
| B20 | 175 % of control |
| B21 | 230 % of control |
| B22 | 133 % of control |
| B23 | 120 % of control |
| B24 | 31.5 % of control |
| B25 | 218 % of control |
| B26 | 65.9 % of control |
| B27 | 193 % of control |
| B28 | 57.2 % of control |
| B29 | 116 % of control |
| B30 | 379 % of control |

Target: T3, FcγRIIb
Assay: SPR (Biacore), relative binding

| Binder | He/Con_2b |
| --- | --- |
| B31 | 69.7 % of GpH7-A5/GpH7-B3/GpL16-k0 |
| B32 | 89.2 % of GpH7-A5/GpH7-B3/GpL16-k0 |

Target: T4, FcγRIIIa (human, UniProt P08637 17-208)
T4 construct: extracellular domain; also called FcgRIIIa; 3a
T4 sequence (P08637 17-208): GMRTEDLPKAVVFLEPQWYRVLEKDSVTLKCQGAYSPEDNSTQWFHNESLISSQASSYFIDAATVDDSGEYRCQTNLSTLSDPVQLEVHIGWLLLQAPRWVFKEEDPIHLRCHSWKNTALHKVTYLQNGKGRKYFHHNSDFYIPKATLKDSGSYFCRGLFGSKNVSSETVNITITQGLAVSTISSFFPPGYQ
Assay: SPR (Biacore), relative binding

| Binder | He/Con_3a |
| --- | --- |
| B31 | 30.4 % of GpH7-A5/GpH7-B3/GpL16-k0 |
| B32 | 34.7 % of GpH7-A5/GpH7-B3/GpL16-k0 |

Target: T4, FcγRIIIa
Assay: SPR; He/Con_3a divided by He/Con_2b (FcγRIIIa against FcγRIIb)

| Binder | He_3a/2b (IIIa/IIb) [ratio] |
| --- | --- |
| B31 | 0.44 |
| B32 | 0.39 |

Target: T1, FcγRIIa H (FcgRIIa type H, His at …)
Assay: SPR; He/Con_2aH divided by He/Con_2b (FcγRIIa H binding over FcγRIIb binding)

| Binder | He_2aH/2b (IIaH/IIb) [ratio] |
| --- | --- |
| B1 | 0.68 |
| B2 | 0.64 |
| B3 | 0.61 |
| B4 | 0.27 |
| B5 | 0.76 |
| B6 | 0.7 |
| B7 | 0.55 |
| B8 | 0.16 |
| B9 | 0.78 |
| B10 | 0.47 |
| B11 | 0.26 |
| B12 | 0.34 |
| B13 | 0.49 |
| B14 | 0.68 |
| B15 | 0.58 |
| B16 | 0.18 |
| B17 | 0.72 |
| B18 | 0.52 |
| B19 | 0.69 |
| B20 | 0.55 |
| B21 | 0.54 |
| B22 | 0.77 |
| B23 | 0.58 |
| B24 | 0.8 |
| B25 | 0.28 |
| B26 | 0.45 |
| B27 | 0.55 |
| B28 | 0.66 |
| B29 | 0.7 |
| B30 | 0.27 |
